Experiments:
LRP5 (Zmax1) = LRP5 (Zmax1) (UniProt O75197); test: cell-based or functional assay
Frizzled4 = Frizzled4 (UniProt Q9ULV1); test: cell-based or functional assay
UniProt Q9ULV1, sequence (Q9ULV1 37-537 limits assumed): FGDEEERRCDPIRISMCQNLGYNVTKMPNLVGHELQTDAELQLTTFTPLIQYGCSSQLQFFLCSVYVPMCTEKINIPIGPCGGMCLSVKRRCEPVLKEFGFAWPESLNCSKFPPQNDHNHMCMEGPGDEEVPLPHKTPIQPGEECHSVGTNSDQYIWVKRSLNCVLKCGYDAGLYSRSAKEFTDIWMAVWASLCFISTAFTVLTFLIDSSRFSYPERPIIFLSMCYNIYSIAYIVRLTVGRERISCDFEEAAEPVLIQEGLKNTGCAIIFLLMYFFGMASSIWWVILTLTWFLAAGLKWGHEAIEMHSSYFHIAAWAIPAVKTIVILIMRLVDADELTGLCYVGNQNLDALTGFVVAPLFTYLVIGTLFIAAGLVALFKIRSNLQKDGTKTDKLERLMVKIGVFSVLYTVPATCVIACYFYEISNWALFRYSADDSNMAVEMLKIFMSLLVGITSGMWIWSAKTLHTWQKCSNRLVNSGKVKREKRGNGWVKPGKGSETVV

Norrin, sequence (Q00604 25-133 limits assumed): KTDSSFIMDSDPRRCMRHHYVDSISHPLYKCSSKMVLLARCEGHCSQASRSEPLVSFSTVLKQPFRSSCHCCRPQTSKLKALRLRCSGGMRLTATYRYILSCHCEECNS
UniProt O75197, sequence (O75197 32-1615 limits assumed): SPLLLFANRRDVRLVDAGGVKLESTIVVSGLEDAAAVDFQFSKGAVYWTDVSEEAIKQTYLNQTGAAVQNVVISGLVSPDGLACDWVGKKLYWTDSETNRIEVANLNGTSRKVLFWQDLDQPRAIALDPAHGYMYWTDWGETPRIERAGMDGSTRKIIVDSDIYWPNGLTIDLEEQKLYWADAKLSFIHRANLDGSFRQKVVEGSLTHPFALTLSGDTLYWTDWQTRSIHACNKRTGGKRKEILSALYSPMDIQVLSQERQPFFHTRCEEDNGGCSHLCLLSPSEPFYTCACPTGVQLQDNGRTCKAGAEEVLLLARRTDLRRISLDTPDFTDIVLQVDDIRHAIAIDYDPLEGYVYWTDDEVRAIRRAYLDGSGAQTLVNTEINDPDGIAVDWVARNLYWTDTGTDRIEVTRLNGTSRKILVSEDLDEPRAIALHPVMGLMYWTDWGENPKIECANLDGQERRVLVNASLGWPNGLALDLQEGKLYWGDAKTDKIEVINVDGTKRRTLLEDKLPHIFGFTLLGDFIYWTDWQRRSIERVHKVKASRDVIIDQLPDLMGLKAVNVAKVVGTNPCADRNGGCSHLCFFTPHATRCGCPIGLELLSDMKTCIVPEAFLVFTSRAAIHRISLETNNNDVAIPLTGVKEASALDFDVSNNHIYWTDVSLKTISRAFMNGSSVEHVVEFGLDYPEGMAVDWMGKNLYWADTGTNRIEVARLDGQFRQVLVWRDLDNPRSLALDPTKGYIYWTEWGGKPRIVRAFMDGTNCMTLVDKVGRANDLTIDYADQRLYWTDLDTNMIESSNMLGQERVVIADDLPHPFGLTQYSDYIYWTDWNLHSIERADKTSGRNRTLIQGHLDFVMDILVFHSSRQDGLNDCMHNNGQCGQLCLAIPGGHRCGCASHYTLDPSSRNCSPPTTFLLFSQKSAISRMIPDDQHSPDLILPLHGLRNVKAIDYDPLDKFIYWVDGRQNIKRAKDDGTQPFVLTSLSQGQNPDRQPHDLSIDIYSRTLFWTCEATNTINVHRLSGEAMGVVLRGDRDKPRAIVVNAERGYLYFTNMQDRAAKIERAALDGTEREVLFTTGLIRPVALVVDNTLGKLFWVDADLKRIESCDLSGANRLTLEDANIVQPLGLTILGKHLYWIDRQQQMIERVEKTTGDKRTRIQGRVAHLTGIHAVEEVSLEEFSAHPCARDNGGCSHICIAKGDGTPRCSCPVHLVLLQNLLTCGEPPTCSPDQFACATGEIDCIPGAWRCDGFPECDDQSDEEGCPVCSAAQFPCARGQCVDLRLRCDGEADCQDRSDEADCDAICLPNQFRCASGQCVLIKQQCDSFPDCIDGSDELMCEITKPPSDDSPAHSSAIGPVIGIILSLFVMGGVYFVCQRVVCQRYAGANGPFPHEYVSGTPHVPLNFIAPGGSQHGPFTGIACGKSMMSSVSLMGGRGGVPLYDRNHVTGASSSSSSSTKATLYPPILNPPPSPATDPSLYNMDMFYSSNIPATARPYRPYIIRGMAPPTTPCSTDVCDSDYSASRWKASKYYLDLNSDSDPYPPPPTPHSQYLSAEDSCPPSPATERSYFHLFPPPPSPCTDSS

Substance: Norrin (from UniProt Q00604 25-133) (ligand)
- ratio of TCF-luci to renilla luminescence, Norrin and LRP5 co-transfected in U20S cells (LRP5 (Zmax1)): 6 fold
- TCF activity, further enhancement when Fz4, LRP5 and Norrin were all co-transfected in U20S cells (Frizzled4): 2 to 6 fold
- TCF response (TCF-luci to renilla), Norrin and Fz4 co-transfected in HEK-293A cells (Frizzled4): 6 fold
- TCF-signal, LRP5 co-transfected along with Fz4 and Norrin in HEK-293 cells (Frizzled4): < 16 fold
- ratio of TCF-luci to renilla luminescence, Norrin cDNA alone transfected in U20S cells (endogenous Fz4 inferred) (Frizzled4): 2 to 3 fold
- ratio of TCF-luci to renilla signal, Fz4 and Norrin co-transfected in U20S cells (Frizzled4): 15 fold

Reference: patent US20070196872A1
